Data published in patent US20160102129A1 (Novo Nordisk, published 2016).
*1 amine or outer side, *2 acyl side, *3 side chain or, on linkers, in order; H or OH if unused. Where no end group is shown, it is not given here. Side-chain parts run from the residue outwards. [ ]: non-standard residue; d: D form. The star is where a group is joined. C20 diacid = O=C(O)CCCCCCCCCCCCCCCCCCC(=O)*; C18 diacid = O=C(O)CCCCCCCCCCCCCCCCC(=O)*; C16 diacid = O=C(O)CCCCCCCCCCCCCCC(=O)*; γGlu = O=C(O)[C@H](CCC(=O)[*:2])N[*:1]; C14 diacid = O=C(O)CCCCCCCCCCCCC(=O)*; Desaminohistidyl = O=C(CCc1c[nH]cn1)*; Ac4c = NC1(C(=O)O)CCC1; AEEA = NCCOCCOCC(=O)O; Aib = CC(C)(N)C(=O)O

Experiments:
[1] = biological target: T1, human GLP-1 receptor (human, UniProt P43220 24-463); test: SPA displacement of [125I]GLP-1(7-36)NH2 from hGLP-1R BHK membranes
T1 construct: whole, on cells; reporter assay on whole cells
Protocol: The GLP-1 receptor binding of each derivatives were determined with competitive binding, displacing [¹²⁵I]GLP-1 bound to GLP-1 receptors expressed in cell membranes associated with wheat germ agglutinin (WGA) scintillation proximity assay (SPA) beads. Each derivative was added in a series of concentrations to isolated membranes comprising the human GLP-1 receptor and displacement of the labelled radioligand was monitored. The receptor binding was reported as the concentration at which half of the labelled ligand is displaced from the receptor, the IC⁵⁰ value.
1. For the receptor binding assay 50 μl of the assay buffer was added to each well of an assay plate. [0588] 2. Test compounds were serially diluted to give the following concentrations: 8×10EE-7 M, 8×10EE-8 M, 8×10EE-9 M, 8×10EE-10 M, 8×10EE-11 M, 8×10EE-12 M and 8×10EE-13 M. Twenty-five μl were added to appropriate wells in the assay plate. [0589] 3. Cell membrane aliquots were thawed and diluted to their working concentration. Fifty μl were added to each well in the assay plate. [0590] 4. WGA SPA beads were suspended in assay buffer at 20 mg/ml. The suspension was diluted to 10 mg/ml in assay buffer just prior to addition to the assay plate. Fifty μl were added to each well in the assay plate. [0591] 5. […] A 25 μl aliquot was reserved for measuring total counts/well. [0592] 6. The assay plate was incubated for 2 h at 30° C. [0593] 7. The assay plate was centrifuged for 10 min. [0594] 8. The assay plate was read in a Perkin Elmer TopCount NXT instrument.

[2] = biological target: T2, human glucagon receptor (human, UniProt P47871 26-477); test: SPA displacement of [125I]-glucagon from human glucagon receptor BHK membranes
T2 construct: whole, on cells; reporter assay on whole cells
Protocol: 1. For the receptor binding assay 50 μl of the assay buffer was added to each well of an assay plate. [0603] 2. Test compounds were serially diluted to give the following concentrations: 8×10EE-7 M, 8×10EE-8 M, 8×10EE-9 M, 8×10EE-10 M, 8×10EE-11 M, 8×10EE-12 M and 8×10EE-13 M. Twenty-five μl were added to appropriate wells in the assay plate. [0604] 3. Cell membrane aliquots were thawed and diluted to their working concentration. Fifty μl were added to each well in the assay plate. [0605] 4. WGA SPA beads were suspended in assay buffer at 20 mg/ml. The suspension was diluted to 10 mg/ml in assay buffer just prior to addition to the assay plate. Fifty μl were added to each well in the assay plate. [0606] 5. […] A 25 μl aliquot was reserved for measuring total counts/well. […] 6. The assay plate was incubated for 2 h at 25° C. [0608] 7. The assay plate was centrifuged for 10 min at 1500 rpm. [0609] 8. The assay plate was read in a Perkin Elmer TopCount NXT instrument.

[3] = biological target: T1, human GLP-1 receptor; test: cell-based or functional assay
[4] = biological target: T2, human glucagon receptor; test: cell-based or functional assay

T2 sequence (P47871 26-477): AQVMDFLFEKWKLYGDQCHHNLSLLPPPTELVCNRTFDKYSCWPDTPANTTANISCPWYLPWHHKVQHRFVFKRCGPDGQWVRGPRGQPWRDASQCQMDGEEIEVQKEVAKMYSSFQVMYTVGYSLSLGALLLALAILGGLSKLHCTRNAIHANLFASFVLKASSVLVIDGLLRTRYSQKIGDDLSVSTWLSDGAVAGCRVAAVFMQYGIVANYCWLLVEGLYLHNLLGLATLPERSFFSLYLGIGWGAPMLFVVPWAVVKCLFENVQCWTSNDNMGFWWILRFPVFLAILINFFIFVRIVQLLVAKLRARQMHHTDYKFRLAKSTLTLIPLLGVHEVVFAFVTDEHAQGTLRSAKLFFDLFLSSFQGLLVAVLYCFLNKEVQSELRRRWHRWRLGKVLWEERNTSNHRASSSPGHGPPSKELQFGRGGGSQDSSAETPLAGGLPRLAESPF

B1: N^ε34-[(4S)-4-carboxy-4-[[(4S)-4-carboxy-4-[[2-[2-[2-[[(4S)-4-carboxy-4-[[(4S)-4-carboxy-4-(17-carboxyheptadecanoylamino)butanoyl]amino]butanoyl]amino]ethoxy]et … (peptide)
peptide: [Desaminohistidyl][Aib]HGTFTSDVSRYLEGRAAREFIAWLLK([γGlu-γGlu-AEEA-γGlu-γGlu-C18 diacid])GSG
IC50 [1]: 1.7 nM
IC50 [2]: 11.4 nM
EC50 GLP-1R [pM], CRE luciferase reporter gene assay [3]: 6 pM
EC50 GlucagonR [pM], CRE luciferase reporter gene assay [4]: 158 pM

B2: N^ε34-[2-[[(2S)-2-[[(2S)-4-carboxy-2-[[2-[[(2S)-2-[[(4S)-4-carboxy-4-[[(4S)-4-carboxy-4-(17-carboxyheptadecanoylamino)butanoyl]amino]butanoyl]amino]-3-hydroxypr … (peptide)
peptide: [Desaminohistidyl]GHGTFTSDVSRYLEEQAAREFIAWLLK([Gly-Ser-Glu-Gly-Ser-γGlu-γGlu-C18 diacid])T-NH2
IC50 [1]: 3.2 nM
IC50 [2]: 9.6 nM
EC50 GLP-1R [pM], CRE luciferase reporter gene assay [3]: 8 pM
EC50 GlucagonR [pM], CRE luciferase reporter gene assay [4]: 459 pM

B3: N^ε34-[2-[2-[2-[[2-[2-[2-[[(4S)-4-carboxy-4-[[(4S)-4-carboxy-4-(13-carboxytridecanoylamino)butanoyl]amino]butanoyl]amino]ethoxy]ethoxy]acetyl]amino]ethoxy]ethox … (peptide)
peptide: [Desaminohistidyl][Aib]HGTFTSDVSKYLEEQAAREFIAWLLK([Ado-Ado-γGlu-γGlu-C14 diacid])T-NH2
IC50 [1]: 1.5 nM
IC50 [2]: 3.7 nM
EC50 GLP-1R [pM], CRE luciferase reporter gene assay [3]: 12 pM
EC50 GlucagonR [pM], CRE luciferase reporter gene assay [4]: 52.6 pM

B4: N^ε34-[2-[2-[2-[[2-[2-[2-[[(4S)-4-carboxy-4-[[(4S)-4-carboxy-4-(15-carboxypentadecanoylamino)butanoyl]amino]butanoyl]amino]ethoxy]ethoxy]acetyl]amino]ethoxy]eth … (peptide)
peptide: [Desaminohistidyl][Aib]HGTFTSDVSKYLEEQAAREFIAWLLK([Ado-Ado-γGlu-γGlu-C16 diacid])T-NH2
IC50 [1]: 1.3 nM
IC50 [2]: 4 nM
EC50 GLP-1R [pM], CRE luciferase reporter gene assay [3]: 60.7 pM
EC50 GlucagonR [pM], CRE luciferase reporter gene assay [4]: 46.1 pM

B5: N^ε34-[2-[2-[2-[[2-[2-[2-[[(4S)-4-carboxy-4-[[(4S)-4-carboxy-4-(19-carboxynonadecanoylamino)butanoyl]amino]butanoyl]amino]ethoxy]ethoxy]acetyl]amino]ethoxy]etho … (peptide)
peptide: [Desaminohistidyl][Aib]HGTFTSDVSKYLEEQAAREFIAWLLK([Ado-Ado-γGlu-γGlu-C20 diacid])T-NH2
IC50 [1]: 0.4 nM
IC50 [2]: 10.1 nM
EC50 GLP-1R [pM], CRE luciferase reporter gene assay [3]: 62.9 pM
EC50 GlucagonR [pM], CRE luciferase reporter gene assay [4]: 917 pM

B6: N^ε34-[2-[[(2S)-2-[[(4S)-4-carboxy-4-[[(4S)-4-carboxy-4-(17-carboxyheptadecanoylamino)butanoyl]amino]butanoyl]amino]-3-hydroxypropanoyl]amino]acetyl]-[Imp7,Aib8 … (peptide)
peptide: [Desaminohistidyl][Aib]HGTFTSDVSKYLEEQAAREFIAWLLK([Gly-Ser-γGlu-γGlu-C18 diacid])T-NH2
SMILES: CC[C@H](C)[C@H](NC(=O)[C@H](Cc1ccccc1)NC(=O)[C@H](CCC(=O)O)NC(=O)[C@H](CCCNC(=N)N)NC(=O)[C@H](C)NC(=O)[C@H](C)NC(=O)[C@H](CCC(N)=O)NC(=O)[C@H](CCC(=O)O)NC(=O)[C@H](CCC(=O)O)NC(=O)[C@H](CC(C)C)NC(=O)[C@H](Cc1ccc(O)cc1)NC(=O)[C@H](CCCCN)NC(=O)[C@H](CO)NC(=O)[C@@H](NC(=O)[C@H](CC(=O)O)NC(=O)[C@H](CO)NC(=O)[C@@H](NC(=O)[C@H](Cc1ccccc1)NC(=O)[C@@H](NC(=O)CNC(=O)[C@H](Cc1c[nH]cn1)NC(=O)C(C)(C)NC(=O)CCc1c[nH]cn1)[C@@H](C)O)[C@@H](C)O)C(C)C)C(=O)N[C@@H](C)C(=O)N[C@@H](Cc1c[nH]c2ccccc12)C(=O)N[C@@H](CC(C)C)C(=O)N[C@@H](CC(C)C)C(=O)N[C@@H](CCCCNC(=O)CNC(=O)[C@H](CO)NC(=O)CC[C@H](NC(=O)CC[C@H](NC(=O)CCCCCCCCCCCCCCCCC(=O)O)C(=O)O)C(=O)O)C(=O)N[C@H](C(N)=O)[C@@H](C)O
IC50 [1]: 0.2 nM
IC50 [2]: 4.3 nM
EC50 GLP-1R [pM], CRE luciferase reporter gene assay [3]: 7 pM
EC50 GlucagonR [pM], CRE luciferase reporter gene assay [4]: 45 pM

B7: N^ε34-[2-[2-[2-[[2-[2-[2-[[(4S)-4-carboxy-4-[[(4S)-4-carboxy-4-(17-carboxyheptadecanoylamino)butanoyl]amino]butanoyl]amino]ethoxy]ethoxy]acetyl]amino]ethoxy]eth … (peptide)
peptide: [Desaminohistidyl][Aib]HGTFTSDVSKYLEEQAAREFIAWLLK([Ado-Ado-γGlu-γGlu-C18 diacid])T-NH2
IC50 [1]: 0.5 nM
IC50 [2]: 4.3 nM
EC50 GLP-1R [pM], CRE luciferase reporter gene assay [3]: 5.2 pM
EC50 GlucagonR [pM], CRE luciferase reporter gene assay [4]: 120 pM

B8: N^ε34-[(4S)-4-carboxy-4-[[(4S)-4-carboxy-4-[[(4S)-4-carboxy-4-[[(4S)-4-carboxy-4-(17-carboxyheptadecanoylamino)butanoyl]amino]butanoyl]amino]butanoyl]amino]buta … (peptide)
peptide: [Desaminohistidyl][Aib]HGTFTSDVSKYLEEQAAREFIAWLLK([γGlu-γGlu-γGlu-γGlu-C18 diacid])T-NH2
SMILES: CC[C@H](C)[C@H](NC(=O)[C@H](Cc1ccccc1)NC(=O)[C@H](CCC(=O)O)NC(=O)[C@H](CCCNC(=N)N)NC(=O)[C@H](C)NC(=O)[C@H](C)NC(=O)[C@H](CCC(N)=O)NC(=O)[C@H](CCC(=O)O)NC(=O)[C@H](CCC(=O)O)NC(=O)[C@H](CC(C)C)NC(=O)[C@H](Cc1ccc(O)cc1)NC(=O)[C@H](CCCCN)NC(=O)[C@H](CO)NC(=O)[C@@H](NC(=O)[C@H](CC(=O)O)NC(=O)[C@H](CO)NC(=O)[C@@H](NC(=O)[C@H](Cc1ccccc1)NC(=O)[C@@H](NC(=O)CNC(=O)[C@H](Cc1c[nH]cn1)NC(=O)C(C)(C)NC(=O)CCc1c[nH]cn1)[C@@H](C)O)[C@@H](C)O)C(C)C)C(=O)N[C@@H](C)C(=O)N[C@@H](Cc1c[nH]c2ccccc12)C(=O)N[C@@H](CC(C)C)C(=O)N[C@@H](CC(C)C)C(=O)N[C@@H](CCCCNC(=O)CC[C@H](NC(=O)CC[C@H](NC(=O)CC[C@H](NC(=O)CC[C@H](NC(=O)CCCCCCCCCCCCCCCCC(=O)O)C(=O)O)C(=O)O)C(=O)O)C(=O)O)C(=O)N[C@H](C(N)=O)[C@@H](C)O
IC50 [1]: 0.3 nM
IC50 [2]: 4.2 nM
EC50 GLP-1R [pM], CRE luciferase reporter gene assay [3]: 7 pM
EC50 GlucagonR [pM], CRE luciferase reporter gene assay [4]: 44 pM

B9: N^ε34-[2-[[(2S)-2-[[(2S)-4-carboxy-2-[[2-[[(2S)-2-[[(4S)-4-carboxy-4-[[(4S)-4-carboxy-4-(17-carboxyheptadecanoylamino)butanoyl]amino]butanoyl]amino]-3-hydroxypr … (peptide)
peptide: [Desaminohistidyl][Ac4c]HGTFTSDVSKYLEEQAAREFIAWLLK([Gly-Ser-Glu-Gly-Ser-γGlu-γGlu-C18 diacid])T-NH2
IC50 [1]: 0.1 nM
IC50 [2]: 4.1 nM
EC50 GLP-1R [pM], CRE luciferase reporter gene assay [3]: 5 pM
EC50 GlucagonR [pM], CRE luciferase reporter gene assay [4]: 40 pM
